Positions count from the first letter of the chain named. Names may count otherwise.
Tests used:
[1] = molecular target: T1, FcγRIIa type R extracellular domain with C-terminal His tag (human, UniProt P12318 34-217); assay: SPR (Biacore T100), ratio of KD values
T1 construct: extracellular domain; also called FcgRIIa R; FcγRIIa R
T1 sequence (looked up): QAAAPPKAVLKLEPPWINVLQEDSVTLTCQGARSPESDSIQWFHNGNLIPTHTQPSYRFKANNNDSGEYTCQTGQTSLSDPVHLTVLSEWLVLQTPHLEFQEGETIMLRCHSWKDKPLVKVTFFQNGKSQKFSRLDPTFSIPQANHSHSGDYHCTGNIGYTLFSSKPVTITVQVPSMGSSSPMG
Procedure: (§1) These antibodies were assessed for the binding activity to each FcγR according to the method described in Reference Example 2.
(§2) Analysis of interaction between objective antibody and the FcγR was carried out using Biacore T100 (GE Healthcare). HBS-EP+ (GE Healthcare) was used as the running buffer, and the measurement temperature was set to 25° C. Chips produced by immobilizing the antigen peptide by the amine coupling method to a Series S Sencor Chip CM5 (GE Healthcare), or alternatively, chips produced by allowing preliminarily biotinylated antigen peptides to interact with and immobilize onto a Series S Sensor Chip SA (certified) (GE Healthcare) were used. Antibodies of interest were captured onto an antigen peptide-immobilized chip, and allowed to interact to each FcγR diluted with running buffer. To regenerate and repeatedly use the chip, the antibodies captured on the chip were washed off by reacting 10 mM glycine-HCl, pH 1.5.
(§3) The FcγR-binding activity of each antibody was assessed primarily using as an indicator the FcγR-binding activity and dissociation constant for FcγR.

[2] = molecular target: T2, FcγRIIb extracellular domain with C-terminal His tag (human, UniProt P31994 43-217); assay: SPR (Biacore T100), ratio of KD values
T2 construct: extracellular domain; also called FcgRIIb
T2 sequence (looked up): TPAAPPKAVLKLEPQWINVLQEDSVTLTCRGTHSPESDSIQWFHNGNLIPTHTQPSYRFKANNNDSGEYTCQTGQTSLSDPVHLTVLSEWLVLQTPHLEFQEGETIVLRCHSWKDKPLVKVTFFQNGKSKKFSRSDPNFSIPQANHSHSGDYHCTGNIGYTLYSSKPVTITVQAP
Procedure: as §1, §2, §3

[3] = molecular target: T3, FcγRIIa type H extracellular domain with C-terminal His tag (human, UniProt P12318 34-217); assay: SPR (Biacore T100), ratio of KD values
T3 construct: extracellular domain; also called FcgRIIa H; FcγRIIa H
T3 sequence (looked up): T1 sequence (looked up) with R134H
Procedure: as §1, §2, §3

[4] = molecular target: T4, FcγRIIIa type F extracellular domain with C-terminal His tag (human, UniProt P08637 17-208); assay: SPR (Biacore T100), ratio of KD values
T4 construct: extracellular domain; also called FcgRIIIa F; FcγRIIIa F
T4 sequence (P08637 17-208): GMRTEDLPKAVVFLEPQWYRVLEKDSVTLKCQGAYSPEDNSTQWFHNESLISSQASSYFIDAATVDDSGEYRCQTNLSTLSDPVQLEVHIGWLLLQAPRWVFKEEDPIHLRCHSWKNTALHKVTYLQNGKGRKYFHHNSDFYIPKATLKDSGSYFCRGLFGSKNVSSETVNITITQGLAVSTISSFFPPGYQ
Procedure: as §1, §2, §3

[5] = molecular target: T5, FcγRIa extracellular domain with C-terminal His tag (human, UniProt P12314 16-292); assay: SPR (Biacore T100), ratio of KD values
T5 construct: extracellular domain; also called FcgRIa; FcgRI
T5 sequence (P12314 16-292): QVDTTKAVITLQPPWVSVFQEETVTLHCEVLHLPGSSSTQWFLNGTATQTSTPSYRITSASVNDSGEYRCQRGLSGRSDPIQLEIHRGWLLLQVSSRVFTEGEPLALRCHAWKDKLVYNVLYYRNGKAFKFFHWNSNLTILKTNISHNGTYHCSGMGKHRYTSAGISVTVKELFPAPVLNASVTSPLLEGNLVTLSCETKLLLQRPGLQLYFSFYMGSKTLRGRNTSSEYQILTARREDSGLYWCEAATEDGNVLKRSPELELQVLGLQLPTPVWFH
Procedure: as §1, §2, §3

[6] = molecular target: T6, FcγRIIIa type V extracellular domain with C-terminal His tag (human, UniProt P08637 17-208); assay: SPR (Biacore T100), ratio of KD values
T6 construct: extracellular domain; also called FcgRIIIa V; FcγRIIIa V
T6 sequence (P08637 17-208 F176V): as the sequence (P08637 17-208) above, with F160V counted along it
Procedure: as §1, §2, §3

[7] = molecular target: T1, FcγRIIa type R extracellular domain …; assay: SPR (Biacore T100), antibody captured on antigen-peptide chip, FcγR analyte, 1:1 Langmuir fit
Procedure: as §1, §2, §3

[8] = molecular target: T2, FcγRIIb extracellular domain with …; assay: as above
Procedure: as §1, §2, §3

[9] = molecular target: T3, FcγRIIa type H extracellular domain …; assay: as above
Procedure: as §1, §2, §3

[10] = molecular target: T4, FcγRIIIa type F extracellular domain …; assay: as above
Procedure: as §1, §2, §3

[11] = molecular target: T5, FcγRIa extracellular domain with …; assay: as above
Procedure: as §1, §2, §3

[12] = molecular target: T6, FcγRIIIa type V extracellular domain …; assay: as above
Procedure: as §1, §2, §3

[13] = molecular target: T7, FcgRIIa R extracellular domain with C-terminal His tag (human, UniProt P12318 34-217); assay: ratio of SPR (Biacore) KDs, FcγRIIb as reference; antibody captured on chip, FcγR as analyte
T7 construct: extracellular domain; also called FcγRIIa R; FcγRIIa type R; not shown: His tag attached to the C terminus
T7 sequence (looked up): T1 sequence (looked up)
Procedure: as §1, §2, §3

[14] = molecular target: T8, FcgRIIa H extracellular domain with C-terminal His tag (human, UniProt P12318 34-217); assay: as above
T8 construct: extracellular domain; also called FcγRIIa H; FcγRIIa type H; not shown: His tag attached to the C terminus
T8 sequence (looked up): T1 sequence (looked up) with R134H
Procedure: as §1, §2, §3

B1: GpH7-Kn045/GpH7-Hl055/GpL16-k0 (antibody, human IgG1, kappa)
heavy 1: QVQLVQSGAEVKKPGASVTVSCKASGYTFTDYEMHWIRQPPGEGLEWIGAIDPKTGDTAYSESFQDRVTLTADKSTSTAYMELSSLTSEDTAVYYCTRFYSYTYWGQGTLVTVSSASTKGPSVFPLAPSSKSTSGGTAALGCLVKDYFPEPVTVSWNSGALTSGVHTFPAVLQSSGLYSLSSVVTVPSSSLGTQTYICNVNHKPSNTKVDKKVEPKSCDKTHTCPPCPAPEYYAGPSVFLFPPKPKDTLMISRTPEVTCVVVDVSDEDPEVKFNWYVDGVEVHNAKTKPREEQYNATYRVVSVLTVLHQDWLNGKEYKCKVSNKALPAPIEKTISKAKGQPREPQVCTLPPSRDELTKNQVSLWCLVKGFYPSDIAVEWESNGQPENNYKTTPPVLDSDGSFFLYSKLTVDKSRWQQGNVFSCSVMHEALHNHYTQKSLSLSP
heavy 2: QVQLVQSGAEVKKPGASVTVSCKASGYTFTDYEMHWIRQPPGEGLEWIGAIDPKTGDTAYSESFQDRVTLTADKSTSTAYMELSSLTSEDTAVYYCTRFYSYTYWGQGTLVTVSSASTKGPSVFPLAPSSKSTSGGTAALGCLVKDYFPEPVTVSWNSGALTSGVHTFPAVLQSSGLYSLSSVVTVPSSSLGTQTYICNVNHKPSNTKVDKKVEPKSCDKTHTCPPCPAPELLAGPDVFLFPPKPKDTLMISRTPEVTCVVVDVSHEDPEVKFNWYVDGVEVHNAKTKPREELYNSTYRVVSVLTVLHQDWLNGKEYKCKVSNKALPMPEEKTISKAKGQPREPQVYTLPPSRCELTKNQVSLSCAVKGFYPSDIAVEWESNGQPENNYKTTPPVLDSDGSFFLVSKLTVDKSRWQQGNVFSCSVMHEALHNHYTQKSLSLSP
light: DIVMTQSPLSLPVTPGEPASISCQASESLVHSNRNTYLHWYLQKPGQSPQLLIYKVSNRFSGVPDRFSGSGSGTDFTLKISRVEAEDVGVYYCSQNTHVPPTFGQGTKVEIERTVAAPSVFIFPPSDEQLKSGTASVVCLLNNFYPREAKVQWKVDNALQSGNSQESVTEQDSKDSTYSLSSTLTLSKADYEKHKVYACEVTHQGLSSPVTKSFNRGEC
notes: Heterodimerized anti-glypican-3 IgG1; also called Kn045/Hl055
- KD ratio [1]: 56 fold (KD of GpH7-Kn033/GpH7-Hl033/GpL16-k0 divided by KD of this antibody)
- KD ratio [2]: 15 fold (KD of GpH7-Kn033/GpH7-Hl033/GpL16-k0 divided by KD of this antibody)
- KD ratio [3]: 21 fold (KD of GpH7-Kn033/GpH7-Hl033/GpL16-k0 divided by KD of this antibody)
- KD ratio [4]: 985 fold (KD of GpH7-Kn033/GpH7-Hl033/GpL16-k0 divided by KD of this antibody)
- KD ratio [5]: 3.7 fold (KD of GpH7-Kn033/GpH7-Hl033/GpL16-k0 divided by KD of this antibody)
- KD ratio [6]: 300 fold (KD of GpH7-Kn033/GpH7-Hl033/GpL16-k0 divided by KD of this antibody)
- Kd [7]: 13 nM
- Kd [8]: 240 nM
- Kd [9]: 29 nM
- Kd [10]: 1.6 nM
- Kd [11]: 0.019 nM
- Kd [12]: 0.72 nM

B2: GpH7-Kn033/GpH7-Hl033/GpL16-k0 (antibody, human IgG1, kappa)
heavy 1: not shown
heavy 2: not shown
light: B1 light
notes: Anti-glypican-3 IgG1 with knobs-into-holes only (knob Y349C/T366W; hole D356C/T366S/L368A/Y407V); also called Kn033/Hl033
- A/I ratio (KD for FcγRIIb / KD for FcγRIIa R) [13]: 4.9
- A/I ratio (KD for FcγRIIb / KD for FcγRIIa H) [14]: 6.2

B3: GpH7-Kn045/GpH7-Hl048/GpL16-k0 (antibody, human IgG1, kappa)
heavy 1: B1 heavy 1
heavy 2: B1 heavy 2 with L293Q, M328K
light: B1 light
notes: Knob chain L234Y/L235Y/G236A/H268D/S298A; hole chain G236A/S239D/A330K/I332E; also called Kn045/Hl048
- A/I ratio (KD for FcγRIIb / KD for FcγRIIa R) [13]: 22
- A/I ratio (KD for FcγRIIb / KD for FcγRIIa H) [14]: 9.5

B4: GpH7-Kn032/GpH7-Hl032/GpL16-k0 (antibody, human IgG1, kappa)
heavy 1: B1 heavy 2 with A234G, L293Q, M328L, Y347C, C354D, S364W, A366L, V405Y
heavy 2: B1 heavy 2 with A234G, L293Q, M328L
light: B1 light
notes: S239D/A330L/I332E in both H chains (called homodimerized); also called Kn032/Hl032
- A/I ratio (KD for FcγRIIb / KD for FcγRIIa R) [13]: 1.8
- A/I ratio (KD for FcγRIIb / KD for FcγRIIa H) [14]: 0.93

B5: GpH7-Kn056/GpH7-Hl055/GpL16-k0 (antibody, human IgG1, kappa)
heavy 1: B1 heavy 1 with Q293L
heavy 2: B1 heavy 2
light: B1 light
notes: Heterodimerized anti-glypican-3 IgG1; also called Kn056/Hl055
- KD ratio [1]: 44 fold (KD of GpH7-Kn033/GpH7-Hl033/GpL16-k0 divided by KD of this antibody)
- KD ratio [2]: 14 fold (KD of GpH7-Kn033/GpH7-Hl033/GpL16-k0 divided by KD of this antibody)
- KD ratio [3]: 20 fold (KD of GpH7-Kn033/GpH7-Hl033/GpL16-k0 divided by KD of this antibody)
- KD ratio [4]: 1110 fold (KD of GpH7-Kn033/GpH7-Hl033/GpL16-k0 divided by KD of this antibody)
- KD ratio [5]: 2.9 fold (KD of GpH7-Kn033/GpH7-Hl033/GpL16-k0 divided by KD of this antibody)
- KD ratio [6]: 327 fold (KD of GpH7-Kn033/GpH7-Hl033/GpL16-k0 divided by KD of this antibody)
- Kd [7]: 17 nM
- Kd [8]: 260 nM
- Kd [9]: 30 nM
- Kd [10]: 1.4 nM
- Kd [11]: 0.023 nM
- Kd [12]: 0.66 nM

B6: GpH7-Kn045/GpH7-Hl055/GpL16-k0 (antibody, human IgG1, kappa)
heavy 1: B1 heavy 1
heavy 2: B1 heavy 2
light: B1 light
notes: Knob chain L234Y/L235Y/G236A/H268D/S298A; hole chain G236A/S239D/Q295L/A330M/I332E; also called Kn045/Hl055
- A/I ratio (KD for FcγRIIb / KD for FcγRIIa R) [13]: 18
- A/I ratio (KD for FcγRIIb / KD for FcγRIIa H) [14]: 8.3

B7: GpH7-Kn056/GpH7-Hl055/GpL16-k0 (antibody, human IgG1, kappa)
heavy 1: B1 heavy 1 with Q293L
heavy 2: B1 heavy 2
light: B1 light
notes: Knob chain L234Y/L235Y/G236A/H268D/Q295L/S298A; hole chain G236A/S239D/Q295L/A330M/I332E; also called Kn056/Hl055
- A/I ratio (KD for FcγRIIb / KD for FcγRIIa R) [13]: 16
- A/I ratio (KD for FcγRIIb / KD for FcγRIIa H) [14]: 8.7

B8: GpH7-Kn037/GpH7-Hl036/GpL16-k0 (antibody, human IgG1, kappa)
heavy 1: B1 heavy 1 with Y232L, Y233L, S237D, D266H, A296S, I330E
heavy 2: B1 heavy 2 with L293Q, M328A
light: B1 light
notes: G236A/S239D/I332E in both H chains (called homodimerized); also called Kn037/Hl036
- A/I ratio (KD for FcγRIIb / KD for FcγRIIa R) [13]: 13
- A/I ratio (KD for FcγRIIb / KD for FcγRIIa H) [14]: 8.6
